Measured values: IntAct's records for PubMed 18278056

B1: Insulin receptor substrate 2 (Mus musculus), P81122 (parent)
chain: MASAPLPGPPASAGGDGPNLNNNNNNNNHSVRKCGYLRKQKHGHKRFFVLRGPGTGGDEASAAGGSPPQPPRLEYYESEKKWRSKAGAPKRVIALDCCLNINKRADAKHKYLIALYTKDEYFAVAAENEQEQEGWYRALTDLVSEGRSGEGGSGTTGGSCSASLPGVLGGSAGAAGCDDNYGLVTPATAVYREVWQVNLKPKGLGQSKNLTGVYRLCLSARTIGFVKLNCEQPSVTLQLMNIRRCGHSDSFFFIEVGRSAVTGPGELWMQADDSVVAQNIHETILEAMKALKELFEFRPRSKSQSSGSSATHPISVPGARRHHHLVNLPPSQTGLVRRSRTDSLAATPPAAKCTSCRVRTASEGDGGAAGGAGTAGGRPMSVAGSPLSPGPVRAPLSRSHTLSAGCGGRPSKVTLAPAGGALQHSRSMSMPVAHSPPAATSPGSLSSSSGHGSGSYPLPPGSHPHLPHPLHHPQGQRPSSGSASASGSPSDPGFMSLDEYGSSPGDLRAFSSHRSNTPESIAETPPARDGSGGELYGYMSMDRPLSHCGRPYRRVSGDGAQDLDRGLRKRTYSLTTPARQRQVPQPSSASLDEYTLMRATFSGSSGRLCPSFPASSPKVAYNPYPEDYGDIEIGSHKSSSSNLGADDGYMPMTPGAALRSGGPNSCKSDDYMPMSPTSVSAPKQILQPRLAAALPPSGAAVPAPPSGVGRTFPVNGGGYKASSPAESSPEDSGYMRMWCGSKLSMENPDPKLLPNGDYLNMSPSEAGTAGTPPDFSAALRGGSEGLKGIPGHCYSSLPRSYKAPCSCSGDNDQYVLMSSPVGRILEEERLEPQATPGAGTFGAAGGSHTQPHHSAVPSSMRPSAIGGRPEGFLGQRCRAVRPTRLSLEGLQTLPSMQEYPLPTEPKSPGEYINIDFGEAGTRLSPPAPPLLASAASSSSLLSASSPASSLGSGTPGTSSDSRQRSPLSDYMNLDFSSPKSPKPSTRSGDTVGSMDGLLSPEASSPYPPLPPRPSTSPSSLQQPLPPAPGDLYRLPPASAATSQGPTAGSSMSSEPGDNGDYTEMAFGVAATPPQPIVAPPKPEGARVASPTSGLKRLSLMDQVSGVEAFLQVSQPPDPHRGAKVIRADPQGGRRRHSSETFSSTTTVTPVSPSFAHNSKRHNSASVENVSLRKSSEGSSTLGGGDEPPTSPGQAQPLVAVPPVPQARPWNPGQPGALIGCPGGSSSPMRRETSVGFQNGLNYIAIDVRGEQGSLAQSQPQPGDKNSWSRTRSLGGLLGTVGGSGASGVCGGPGTGALPSASTYASIDFLSHHLKEATVVKE

Variants of: B1
Details: with INSR

Effect of a mutation on the interaction, disrupting interaction:
Y624A
D627A
Y621A
Y628F
I633A
I631A
G629A

Variants of: B1
Details: with igf1r_human IGF1R

Effect of a mutation on the interaction, disrupting interaction:
Y628F
